Measured values taken from the Human Domainome abundance scans (Beltran et al. 2025).
± gives the uncertainty stated by the source.

B1: Cytoplasmic polyadenylation element-binding protein 2, residues 513 to 575; numbered along this chain, Q7Z5Q1 (parent)
chain: KRVEVKPYVLDDQMCDECQGARCGGKFAPFFCANVTCLQYYCEFCWANIHSRAGREFHKPLVK

Variants of: B1
Assay: abundance fitness (aPCA) (normalised: wild type 0, dead -1); higher = more abundant; growth selection in yeast, the domain comes from the species named
Conditions: Homo sapiens

In order of falling abundance fitness:
1. KRVEVKPYVLDDQMCDECQGARCGGKFAPFFCANVTCNQYYCEFCWANIHSRAGREFHKPLVK  0.219 ± 0.071
2. KRVEVKPYVLDDQMCDECQGARCGGKFAPFFCANVTCLQYYCEFCWANIHSRAGYEFHKPLVK  0.211 ± 0.057
3. KRVEVKPYVLDDQMCYECQGARCGGKFAPFFCANVTCLQYYCEFCWANIHSRAGREFHKPLVK  0.192 ± 0.087
4. KRVEVKPYVLDDQMCDECQGARCGGKFAPFFCANVTCLQYYCEFCWANIHSRNGREFHKPLVK  0.152 ± 0.086
5. KRVEVKPSVLDDQMCDECQGARCGGKFAPFFCANVTCLQYYCEFCWANIHSRAGREFHKPLVK  0.121 ± 0.044
6. KRVEVKPYVLDDQMCDECQGARCGGKFAPFFCANVTCLQYYCEFCWANIHSKAGREFHKPLVK  0.118 ± 0.068
7. KRVEVKPYVLDDQMCDECQGARCGGKFAPFFCANNTCLQYYCEFCWANIHSRAGREFHKPLVK  0.108 ± 0.078
8. KRVEVKPYVLDDQMCDECQGARCGGKFAPFFCANVTCLAYYCEFCWANIHSRAGREFHKPLVK  0.1 ± 0.04
9. KRVEVKPYVLDDQMCDECQGARCGGKFAPFFCANVTCLQYYCEFCWANIHSRAGRECHKPLVK  0.098 ± 0.064
10. KRVEVKPYVLDDQMCDECQGARCGGKFAPFFCANVTCLQYYCEFCWANIHSRAGREFHKPCVK  0.091 ± 0.059
11. KRVEVKPYVLDDQMCDECQGAHCGGKFAPFFCANVTCLQYYCEFCWANIHSRAGREFHKPLVK  0.077 ± 0.098
12. KRVEVKPYVLDDQMCDECQGARCGGKFAPFFCANVTCLQYYCEFCWANIHSRAGREFHKPIVK  0.071 ± 0.072
13. KRVEVKPYVLDDQMCDECQGARCGGKFAPFFCANVTCLQYYCEFCWANIHSRAGREVHKPLVK  0.065 ± 0.048
14. KRVEVKPYVLDDQMCDECQGARCGGKFAPFFCANVTCRQYYCEFCWANIHSRAGREFHKPLVK  0.056 ± 0.041
15. KRVEVKPYVLDDQMCDECQGARCGGKFAPFFCANVTCLQYYCECCWANIHSRAGREFHKPLVK  0.053 ± 0.063
16. KRVEVKPYHLDDQMCDECQGARCGGKFAPFFCANVTCLQYYCEFCWANIHSRAGREFHKPLVK  0.051 ± 0.099
17. KRVEVKPYVGDDQMCDECQGARCGGKFAPFFCANVTCLQYYCEFCWANIHSRAGREFHKPLVK  0.032 ± 0.052
18. KRVEVKPYVLDDQMCDECQGARCGGKFAPFFCANVTCLQYYCEFCWATIHSRAGREFHKPLVK  0.024 ± 0.052
19. KRVEVKPYVLDDQMCDECQGARCGGKFAPFFCANVTCLQYYCSFCWANIHSRAGREFHKPLVK  0.018 ± 0.04
20. KRVEVKPYVLDDQMCDECQGARCGGKFAPFFCANVTCLQYYCEFCWALIHSRAGREFHKPLVK  0.014 ± 0.043
21. KRVEVKPYVLDDQMCDECQGARCGGKFAPFFCANVTCLQYYCEFCWANIHSRAGREFHKPLVE  0.014 ± 0.082
22. KRVEVKPYVLDDQMCDECQGARCGGKFAPFFCANVTCLTYYCEFCWANIHSRAGREFHKPLVK  -0.002 ± 0.053
23. KRVEVKTYVLDDQMCDECQGARCGGKFAPFFCANVTCLQYYCEFCWANIHSRAGREFHKPLVK  -0.014 ± 0.05
24. KRVEVKPYVLDDQMCDECQGARCGGKFAPFFCANVKCLQYYCEFCWANIHSRAGREFHKPLVK  -0.027 ± 0.045
25. KRVEVKPYVPDDQMCDECQGARCGGKFAPFFCANVTCLQYYCEFCWANIHSRAGREFHKPLVK  -0.028 ± 0.047
26. KRVEVKPYVLDDQMCDECQGRRCGGKFAPFFCANVTCLQYYCEFCWANIHSRAGREFHKPLVK  -0.033 ± 0.034
27. KRVEVKPYTLDDQMCDECQGARCGGKFAPFFCANVTCLQYYCEFCWANIHSRAGREFHKPLVK  -0.036 ± 0.062
28. KRIEVKPYVLDDQMCDECQGARCGGKFAPFFCANVTCLQYYCEFCWANIHSRAGREFHKPLVK  -0.041 ± 0.052
29. KRVEVKPYVLGDQMCDECQGARCGGKFAPFFCANVTCLQYYCEFCWANIHSRAGREFHKPLVK  -0.041 ± 0.043
30. KRVEVKPYVLDDQMCDECQGARCGGKFAPFFCANVTCLQYYCEFCWANIHSRAGREFHKPLVQ  -0.044 ± 0.11
31. KRVEVKPYVLDDQMCDECQGARCGGKFAPFFCANVQCLQYYCEFCWANIHSRAGREFHKPLVK  -0.058 ± 0.052
32. KRVEVKPYVLDDQMCDVCQGARCGGKFAPFFCANVTCLQYYCEFCWANIHSRAGREFHKPLVK  -0.061 ± 0.039
33. KRVEVEPYVLDDQMCDECQGARCGGKFAPFFCANVTCLQYYCEFCWANIHSRAGREFHKPLVK  -0.069 ± 0.048
34. KRVEVKPYVLDDQMCDECQGARCGGKFAPFFCANVTCLQYYCEFCWAFIHSRAGREFHKPLVK  -0.071 ± 0.047
35. KRVEVKPYVLDDQMCDECQGARCGGKFAPFFCANVTCTQYYCEFCWANIHSRAGREFHKPLVK  -0.072 ± 0.059
36. KRVEVKPYVLDDQMCDECQGARCGGKFAPFFCANVTCLQYYCEFCWINIHSRAGREFHKPLVK  -0.073 ± 0.064
37. KRVECKPYVLDDQMCDECQGARCGGKFAPFFCANVTCLQYYCEFCWANIHSRAGREFHKPLVK  -0.074 ± 0.042
38. KRVEVKPYVLDDQMCDECQGARCGGKFAPFFCANVTCLQYYCEFCWANIHSRAGREFHQPLVK  -0.076 ± 0.079
39. KRVEVKPYVLDDQMCDECQGARCGGGFAPFFCANVTCLQYYCEFCWANIHSRAGREFHKPLVK  -0.082 ± 0.046
40. KRVEVKPYVLDDVMCDECQGARCGGKFAPFFCANVTCLQYYCEFCWANIHSRAGREFHKPLVK  -0.083 ± 0.047
41. KRVEVKHYVLDDQMCDECQGARCGGKFAPFFCANVTCLQYYCEFCWANIHSRAGREFHKPLVK  -0.086 ± 0.072
42. KRREVKPYVLDDQMCDECQGARCGGKFAPFFCANVTCLQYYCEFCWANIHSRAGREFHKPLVK  -0.1 ± 0.04
43. KRVEVKPYVLDDQMCDECQGARCGGKFAEFFCANVTCLQYYCEFCWANIHSRAGREFHKPLVK  -0.108 ± 0.061
44. KRVEVKPYVLDDQMCDECQGARCGGKFAPFFCANFTCLQYYCEFCWANIHSRAGREFHKPLVK  -0.115 ± 0.06
45. KRVEVKPYVLDDQMCDNCQGARCGGKFAPFFCANVTCLQYYCEFCWANIHSRAGREFHKPLVK  -0.128 ± 0.17
46. KRVEVKPYVLDSQMCDECQGARCGGKFAPFFCANVTCLQYYCEFCWANIHSRAGREFHKPLVK  -0.146 ± 0.049
47. KRVEVKPYVLDDCMCDECQGARCGGKFAPFFCANVTCLQYYCEFCWANIHSRAGREFHKPLVK  -0.146 ± 0.063
48. KRVEVKPYVLDDQMCDECQGARCGGKFAPFFCANVTCLQYYCEFCWPNIHSRAGREFHKPLVK  -0.175 ± 0.039
49. KRVEVKPYVLDDQMCDECQGARCGGKFAPFFCANVTCLQYYCEFCWANIHSRAGGEFHKPLVK  -0.176 ± 0.055
50. KRVEVKPYVLDDQMCDECQGARCGGKFAPFFCANVTCLQYYCEFCWANIHSRAIREFHKPLVK  -0.176 ± 0.16
51. KRVEVKPYVLDDQMCDECQGARCGGKFAPFFCANVTCLQYYCEFCWANIHSRAGREFHKPLAK  -0.193 ± 0.47
52. KRVEVKPYVLDDQMCDECQGLRCGGKFAPFFCANVTCLQYYCEFCWANIHSRAGREFHKPLVK  -0.203 ± 0.04
53. KRVEVKPYVLDDQMCDECQGARCGGKFAPFFCANVTCLQYYCEFCWANIHFRAGREFHKPLVK  -0.239 ± 0.065
54. KRVEVKPYVLDDQMCDECQGARCCGKFAPFFCANVTCLQYYCEFCWANIHSRAGREFHKPLVK  -0.242 ± 0.06
55. KRVEVKPYVLDDQMCDECQGARCGGKFAPFFCANVTCLQYYCEFCWANIHSRAWREFHKPLVK  -0.259 ± 0.061
56. KRVEVKPYVLDDQMCDECQGARCGGKFAWFFCANVTCLQYYCEFCWANIHSRAGREFHKPLVK  -0.293 ± 0.052
57. KRVEVLPYVLDDQMCDECQGARCGGKFAPFFCANVTCLQYYCEFCWANIHSRAGREFHKPLVK  -0.297 ± 0.037
58. KRVEVKPYVLDDQMCDECQGARCGGKFAPFFCANVTCLQYYCEFCWANIHSRAMREFHKPLVK  -0.299 ± 0.07
59. KRVEVKPYVLDDQMCDECQGARCGGKFGPFFCANVTCLQYYCEFCWANIHSRAGREFHKPLVK  -0.314 ± 0.034
60. KHVEVKPYVLDDQMCDECQGARCGGKFAPFFCANVTCLQYYCEFCWANIHSRAGREFHKPLVK  -0.319 ± 0.088
61. KRVEVKPYVLDDQMCDECQGARCTGKFAPFFCANVTCLQYYCEFCWANIHSRAGREFHKPLVK  -0.325 ± 0.055
62. KRVEVKPYVLDDQMCDECQGARCGGKFAPFFCFNVTCLQYYCEFCWANIHSRAGREFHKPLVK  -0.336 ± 0.078
63. KRVEVKPYVLDDQWCDECQGARCGGKFAPFFCANVTCLQYYCEFCWANIHSRAGREFHKPLVK  -0.352 ± 0.062
64. KRVEVKPYVLDDQMCDECQGARCGGKFAPFFCANVTCLQYYCEFCWANIHSRAGRAFHKPLVK  -0.357 ± 0.061
65. KRVEVKPYVLDDQMCDECQGARCGGKFAPFFCAFVTCLQYYCEFCWANIHSRAGREFHKPLVK  -0.363 ± 0.062
66. KRVEVKPYVLDDQMSDECQGARCGGKFAPFFCANVTCLQYYCEFCWANIHSRAGREFHKPLVK  -0.377 ± 0.054
67. KRVEVKPYVLDDQMCDECQGARCGGKFWPFFCANVTCLQYYCEFCWANIHSRAGREFHKPLVK  -0.381 ± 0.083
68. KRVEVKPYVLDDQMCDECQGARFGGKFAPFFCANVTCLQYYCEFCWANIHSRAGREFHKPLVK  -0.409 ± 0.07
69. KRVEVKPYVLDDQMCDECQGWRCGGKFAPFFCANVTCLQYYCEFCWANIHSRAGREFHKPLVK  -0.41 ± 0.069
70. KRVEVKPYVLDDQMCDECQGARCGGKFAPFFCANVTCLQYYCEFCWANIHSRAGREFHKPLVW  -0.415 ± 0.09
71. VRVEVKPYVLDDQMCDECQGARCGGKFAPFFCANVTCLQYYCEFCWANIHSRAGREFHKPLVK  -0.509 ± 0.087
72. KRVEVKPYVLDDQMYDECQGARCGGKFAPFFCANVTCLQYYCEFCWANIHSRAGREFHKPLVK  -0.519 ± 0.12
73. KRVEVKPYVLDDQMGDECQGARCGGKFAPFFCANVTCLQYYCEFCWANIHSRAGREFHKPLVK  -0.531 ± 0.054
74. KRVEVKPYVLDDQMCDECQGARCGGKFAPFFCANVTCLQYSCEFCWANIHSRAGREFHKPLVK  -0.532 ± 0.064
75. KRVEVKPYVLDDQMCDECQGARCGGKFAPFFCANVTCLQYYCEFCTANIHSRAGREFHKPLVK  -0.558 ± 0.052
76. KRVEVKPYVLDDQMCDECPGARCGGKFAPFFCANVTCLQYYCEFCWANIHSRAGREFHKPLVK  -0.579 ± 0.062
77. KRVEVKPYVLDDQMCDECQGARCGGKFAPGFCANVTCLQYYCEFCWANIHSRAGREFHKPLVK  -0.582 ± 0.063
78. KRVEVKPYVLDDQMCDECQYARCGGKFAPFFCANVTCLQYYCEFCWANIHSRAGREFHKPLVK  -0.598 ± 0.11
79. KRVEVKPYVLDDQMKDECQGARCGGKFAPFFCANVTCLQYYCEFCWANIHSRAGREFHKPLVK  -0.649 ± 0.063
80. KRVEVKPYVLDDQMCDECQGARCGGKFAPFFCANVTCLQYYCEFCWANIHSRAGREFIKPLVK  -0.679 ± 0.15
81. KRVEVKPYVLDDQMCDECQGARCGGKFAPFFCANVTCLQYYCEFCKANIHSRAGREFHKPLVK  -0.829 ± 0.1
82. KRVEVKPYVLDDQMCDECQGARCGGKFAPFFCANVTLLQYYCEFCWANIHSRAGREFHKPLVK  -0.931 ± 0.074
83. KRVEVKPYVLDDQMCDEYQGARCGGKFAPFFCANVTCLQYYCEFCWANIHSRAGREFHKPLVK  -0.966 ± 0.15
84. KRVEVKPYVLDDQMCDECQGARCGGKFAPFFCANVTCLQYYCEFTWANIHSRAGREFHKPLVK  -1.01 ± 0.099
85. KRVEVKIYVLDDQMCDECQGARCGGKFAPFFCANVTCLQYYCEFCWANIHSRAGREFHKPLVK  -1.07 ± 0.32
